The values that follow come from article PMC7581431.

The target of experiment [1] is Notch2 [human (endogenous in Flp-In-T-REx-293)]. Nature of the experiment: BioID proximity labeling (mass spectrometry). As to conditions: +Wnt3a.
Experiment [2] has as its target Lip-NKD-HisC (human (identical sequence in mouse and human)) (UniProt Q969G9). Nature of the experiment: aggregation and co-aggregation assay read by PAGE; purified proteins in 15 mM acetate, 150 mM NaCl, pH 5.0 mixed in different ratios; after 10 min 1 M Tris-HCl pH 8.0 added to 200 mM; after 20 min boiled 10 min in LDS sample buffer; PAGE under denaturing and reducing conditions.

Experiment [3] deals with CELSR1 [human (endogenous in Flp-In-T-REx-293)]. Nature of the experiment: BioID proximity labeling (mass spectrometry). The following applies: +Wnt3a.
Experiment [4] addresses CK1ε. Put plainly: BioID proximity labeling (mass spectrometry). As to conditions: +Wnt3a.

Sequence of Lip-NKD-HisC (human (identical sequence in mouse and human)) (Q969G9 whole entry): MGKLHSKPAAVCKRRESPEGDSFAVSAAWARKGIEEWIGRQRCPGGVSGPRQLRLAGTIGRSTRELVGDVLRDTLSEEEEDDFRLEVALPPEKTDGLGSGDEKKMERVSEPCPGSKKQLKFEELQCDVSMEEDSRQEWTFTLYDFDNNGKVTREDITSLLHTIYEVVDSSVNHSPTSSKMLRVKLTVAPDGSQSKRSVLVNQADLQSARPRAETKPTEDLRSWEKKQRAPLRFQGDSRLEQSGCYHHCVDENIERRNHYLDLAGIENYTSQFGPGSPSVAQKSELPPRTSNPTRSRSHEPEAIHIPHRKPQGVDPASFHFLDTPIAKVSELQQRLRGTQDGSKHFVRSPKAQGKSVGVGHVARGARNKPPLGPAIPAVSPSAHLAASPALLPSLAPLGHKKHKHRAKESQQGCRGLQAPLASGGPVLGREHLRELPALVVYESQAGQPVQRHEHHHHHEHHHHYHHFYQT

In the case of “Nkd1-BirA* mutant G2A [murine] / Notch2 [human (endogenous in Flp-In-T-REx-293)] chain 1 G2A”, the response (unweighted spectral counts) in experiment [1] amounted to 1. Usually stoichiometry N stands for a count of units in the complex or per binding partner. Turning to “Lip-NKD-HisC (from UniProt Q969G9 1-470) (domain or fragment)”, the stoichiometry N in experiment [2] turned out to be 10. In experiment [3], “Nkd1-BirA* mutant G2A [murine] / CELSR1 [human (endogenous in Flp-In-T-REx-293)] chain 1 G2A” registered a response (unweighted spectral counts) of 1. Regarding “MBP-Axin1-HisC (from UniProt O15169 1-862) (domain or fragment)”, the molecules per core (molecules per core) in experiment [2] was less than 5. In turn, Nkd1-BirA* (from UniProt Q99MH6) G2A yielded a response (unweighted spectral counts) in experiment [4] of 8.
